Drawing on patent publication US20260207798A1, “CYCLIC PEPTIDES AS PET IMAGING AGENTS OF GRANZYME B” (priority 2022, published 2026), this text covers Kd for 17 molecules.

Numbered stars: 1 amine (or outer) side, 2 acyl side, 3 side chain; on linkers, the order of the positions; unused ones are H or OH. Bridge positions count the residues as written; N and C are the ends. Square brackets hold non-standard residues; d marks the D form. Peptide text beside a SMILES is read from it. I, II: the chains in the order shown. X4 = O=C(O)CN1CCN(CC(=O)O)CC(Cc2ccc(NC(=S)NCCC(=O)N(CCOCCOCCOCCOCCC(=O)[*:1])CCOCCOCCOCCOCCC(=O)[*:2])cc2)N(CC(=O)O)CC1; NOTA‑1 = 1,4,7-triazacyclononane-N,N',N''-triacetic acid phenyl thiourea; Pro(cis-4-Ph) = O=C(O)[C@@H]1C[C@H](c2ccccc2)CN1; Trp(5-F) = N[C@@H](Cc1c[nH]c2ccc(F)cc12)C(=O)O; Pro(trans-4-F) = O=C(O)[C@@H]1C[C@@H](F)CN1; Pro(cis-4-F) = O=C(O)[C@@H]1C[C@H](F)CN1; Phe(4-F) = N[C@@H](Cc1ccc(F)cc1)C(=O)O; Phe(4-Me) = Cc1ccc(C[C@H](N)C(=O)O)cc1; Tic = O=C(O)[C@@H]1Cc2ccccc2CN1; Pip = O=C(O)[C@@H]1CCCCN1; Aze = O=C(O)[C@@H]1CCN1; Aib = CC(C)(N)C(=O)O

The labels stand for the following.
B1: Compound 54a (peptide)
peptide: {CH2CO}-[Phe(4-F)]NFEDQSPDTWQPCG-NH2
modifications: thioether N-14
SMILES: C[C@@H](O)[C@@H]1NC(=O)[C@H](CC(=O)O)NC(=O)[C@@H]2CCCN2C(=O)[C@H](CO)NC(=O)[C@H](CCC(N)=O)NC(=O)[C@H](CC(=O)O)NC(=O)[C@H](CCC(=O)O)NC(=O)[C@H](Cc2ccccc2)NC(=O)[C@H](CC(N)=O)NC(=O)[C@H](Cc2ccc(F)cc2)NC(=O)CSC[C@@H](C(=O)NCC(N)=O)NC(=O)[C@@H]2CCCN2C(=O)[C@H](CCC(N)=O)NC(=O)[C@H](Cc2c[nH]c3ccccc23)NC1=O
B2: Compound 64a (peptide)
peptide: {CH2CO}-FNFEDQS[Tic]DTWQPCG-NH2
modifications: thioether N-14
SMILES: C[C@@H](O)[C@@H]1NC(=O)[C@H](CC(=O)O)NC(=O)[C@@H]2Cc3ccccc3CN2C(=O)[C@H](CO)NC(=O)[C@H](CCC(N)=O)NC(=O)[C@H](CC(=O)O)NC(=O)[C@H](CCC(=O)O)NC(=O)[C@H](Cc2ccccc2)NC(=O)[C@H](CC(N)=O)NC(=O)[C@H](Cc2ccccc2)NC(=O)CSC[C@@H](C(=O)NCC(N)=O)NC(=O)[C@@H]2CCCN2C(=O)[C@H](CCC(N)=O)NC(=O)[C@H](Cc2c[nH]c3ccccc23)NC1=O
B3: Compound 23a (peptide)
peptide: {CH2CO}-FNFEDQSVDTWQPCGGK-NH2
modifications: thioether N-14
SMILES: CC(C)[C@@H]1NC(=O)[C@H](CO)NC(=O)[C@H](CCC(N)=O)NC(=O)[C@H](CC(=O)O)NC(=O)[C@H](CCC(=O)O)NC(=O)[C@H](Cc2ccccc2)NC(=O)[C@H](CC(N)=O)NC(=O)[C@H](Cc2ccccc2)NC(=O)CSC[C@@H](C(=O)NCC(=O)NCC(=O)N[C@@H](CCCCN)C(N)=O)NC(=O)[C@@H]2CCCN2C(=O)[C@H](CCC(N)=O)NC(=O)[C@H](Cc2c[nH]c3ccccc23)NC(=O)[C@H]([C@@H](C)O)NC(=O)[C@H](CC(=O)O)NC1=O
B4: Compound 61a (peptide)
peptide: {CH2CO}-FNFEDQAPDTWQPCGGK-NH2
modifications: thioether N-14
SMILES: C[C@@H]1NC(=O)[C@H](CCC(N)=O)NC(=O)[C@H](CC(=O)O)NC(=O)[C@H](CCC(=O)O)NC(=O)[C@H](Cc2ccccc2)NC(=O)[C@H](CC(N)=O)NC(=O)[C@H](Cc2ccccc2)NC(=O)CSC[C@@H](C(=O)NCC(=O)NCC(=O)N[C@@H](CCCCN)C(N)=O)NC(=O)[C@@H]2CCCN2C(=O)[C@H](CCC(N)=O)NC(=O)[C@H](Cc2c[nH]c3ccccc23)NC(=O)[C@H]([C@@H](C)O)NC(=O)[C@H](CC(=O)O)NC(=O)[C@@H]2CCCN2C1=O

The target in one experiment is T1, human Granzyme B (human, UniProt P10144 21-247).
T1 construct: Captured on a Series S Streptavidin chip for SPR; also called hGranzyme B; GzmB
T1 sequence (P10144 21-247 limits assumed): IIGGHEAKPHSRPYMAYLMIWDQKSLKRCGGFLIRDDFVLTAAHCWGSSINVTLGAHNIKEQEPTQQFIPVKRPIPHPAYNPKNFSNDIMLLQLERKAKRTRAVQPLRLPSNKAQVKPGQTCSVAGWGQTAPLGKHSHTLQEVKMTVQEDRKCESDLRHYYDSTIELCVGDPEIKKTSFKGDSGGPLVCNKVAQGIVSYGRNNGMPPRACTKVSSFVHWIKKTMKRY
Put plainly: SPR, Biacore 8k+, hGranzyme B captured on SA chip, single cycle kinetics, 1:1 model.
Conditions: not given
A general note: SPR reads the build-up and loss of mass on a sensor chip optically.
By Kd is commonly meant the equilibrium constant for the complex coming apart. Molecule {CH2CO}-FNFEDQSPDT[Trp(5-F)]QPCG-NH2 (thioether N-14) [Compound 47a] had a dissociation constant (Kd) of 4.1 nM.
Same read-out and setting: the result for {CH2CO}-FNFEDQSPDTWQ[Pip]CG-NH2 (thioether N-14, also called 71aa) [Compound 71a] reads 19.6 nM; that for {CH2CO}-FNFEDQSPDTWQ[Pro(trans-4-F)]CG-NH2 (thioether N-14) [Compound 49a], 4.5 nM; that for B1, 4.9 nM.
B2 registered a dissociation constant (Kd) of 8.1 nM.
Same read-out and setting: in the case of B3 it was 27.5 nM.
Same read-out and setting: the result for {CH2CO}-FNFEDQSADTWQPCGGK-NH2 (thioether N-14, also called 2b) [Compound 26a] reads 15.4 nM; that for B4, 6.3 nM; that for {CH2CO}-FNFEDQS[Pip]DTWQPCG-NH2 (thioether N-14) [Compound 76a], 28.6 nM.
As to {CH2CO}-FNFEDQSPDTWQPCGGK(NOTA‑1)-NH2 (thioether N-14) [Compound 13a], the equilibrium dissociation constant (Kd) stood at 4.4 nM.
The same measure, in the same setting: the result for {CH2CO}-FNFEDQSPDTWQ[Pro(cis-4-Ph)]CG-NH2 (thioether N-14) [Compound 50a] reads 4.6 nM; that for {CH2CO}-[Phe(4-Me)]NFEDQSPDTWQPCG-NH2 (thioether N-14) [Compound 43a], 3.1 nM.
The same measure, in the same setting: in the case of {CH2CO}-FNFEDQS[Aze]DTWQPCG-NH2 (thioether N-14) [Compound 75a] it was 28.3 nM.

Another experiment addresses human Granzyme B (hGranzyme B) (Homo sapiens, UniProt P10144). Put plainly: Surface plasmon resonance (SPR) binding kinetics to hGranzyme B.
Conditions: not given
How it is done: The kinetics of test peptide binding to human Granzyme B (hGranzyme B) was determined by SPR. All experiments were performed at 25° C. using the Biacore 8k+ instrument (Cytiva, Marlborough, MA). The Biacore 8k+ Insight Evaluation Software Version 3.0 was used to fit the data with a 1:1 binding model to determine the association rate constant ka (M^−1s^−1, where “M” ~equals molar and “s” ~equals seconds) and the dissociation rate constant kd (s^−1). These rate constants were used to calculate the equilibrium dissociation constant. KD (M)=kd/ka.
To measure the binding kinetics of peptides of interest, surfaces were prepared by a capture method to a Series S Streptavidin (SA) chip using a 1×HBS-EP+ running buffer (Cytiva). hGranzyme B was diluted to 10 μg/mL in IX HBS-EP+ and flowed over spot 2 of each flow cell on the chip at a flow rate of 10 ul/min for 20 s to achieve a level of capture of ~1100 RU. An unmodified spot 1 of each flow cell was used as a matrix binding control or reference surface. Binding kinetics were measured using single cycle kinetics at 25° C. by injecting 5 concentrations with 3-fold serial dilutions of test peptides from 0.01 μM to 1 μM. Compound dilutions were performed manually in a running buffer containing 1×HBS-EP+(Cytiva), and a final concentration of 2% DMSO. The interaction analyses over hGranzyme B, were performed using a 120 s association time and a 900 s dissociation time. All experiments were conducted at a flow rate of 50 μL/min with a data collection rate of 10 Hz.
Peptide dilution series included 2 zero concentration points (no compound) which were averaged and subtracted from the peptide concentration injection as DMSO control responses. Binding data acquired from the reference surface (matrix binding control) were subtracted from the binding data for hGranzyme B surface on the chip to determine specific binding. Next, the association phase data were solvent corrected to account for any signal fluctuation throughout the experiment due to subtle DMSO concentration differences. Corrected response data were analyzed using the Biacore 8k+ Evaluation Software Version 3.0 according to the manufacturer. SPR data for representative compounds of the disclosure are found in Table 8.
In the case of `C[C@@H]1NC(=O)[C@H](CO)NC(=O)[C@H](CCC(N)=O)NC(=O)[C@H](CC(=O)O)NC(=O)[C@H](CCC(=O)O)NC(=O)[C@H](Cc2ccccc2)NC(=O)[C@H](CC(N)=O)NC(=O)[C@H](Cc2ccccc2)NC(=O)CSC[C@@H](C(=O)NCC(=O)NCC(=O)N[C@H](CCCCNC(=O)CCOCCOCCOCCOCCN(CCOCCOCCOCCOCCC(=O)NCCCC[C@@H](NC(=O)CNC(=O)CNC(=O)[C@@H]2CSCC(=O)N[C@@H](Cc3ccccc3)C(=O)N[C@@H](CC(N)=O)C(=O)N[C@@H](Cc3ccccc3)C(=O)N[C@@H](CCC(=O)O)C(=O)N[C@@H](CC(=O)O)C(=O)N[C@@H](CCC(N)=O)C(=O)N[C@@H](CO)C(=O)N[C@@H](C)C(=O)N[C@@H](CC(=O)O)C(=O)N[C@@H]([C@@H](C)O)C(=O)N[C@@H](Cc3c[nH]c4ccccc34)C(=O)N[C@@H](CCC(N)=O)C(=O)N3CCC[C@H]3C(=O)N2)C(N)=O)C(=O)CCNC(=S)Nc2ccc(CC3CN(CC(=O)O)CCN(CC(=O)O)CCN3CC(=O)O)cc2)C(N)=O)NC(=O)[C@@H]2CCCN2C(=O)[C@H](CCC(N)=O)NC(=O)[C@H](Cc2c[nH]c3ccccc23)NC(=O)[C@H]([C@@H](C)O)NC(=O)[C@H](CC(=O)O)NC1=O` (stereo partly drawn) [Compound 8a, (*F.N.F.E.D.Q.S.A.D.T.W.Q.P.*C.G.G.K.NH2)-bis(PEG4)-β-Ala(NOTA-1)-(*F.N.F.E.D.Q.S.A.D.T.W.Q.P.*C.G.G.K.NH2)] (I: {CH2CO}-FNFEDQSADTWQPCGG[dK]-NH2 / II: {CH2CO}-FNFEDQSADTWQPCGG[dK]-NH2; linker I:17-II:17 via X4; thioether I:N-I:14, II:N-II:14), the Kd was below 0.1 nM.

The experiment is the same for the next values; noted with them: 25° C., 1:1 binding model, KD=kd/ka; read-out: Granzyme B SPR Kd.
On to `C[C@@H](O)[C@@H]1NC(=O)[C@H](CC(=O)O)NC(=O)[C@@H]2CCCN2C(=O)[C@H](CO)NC(=O)[C@H](CCC(N)=O)NC(=O)[C@H](CC(=O)O)NC(=O)[C@H](CCC(=O)O)NC(=O)[C@H](Cc2ccccc2)NC(=O)[C@H](CC(N)=O)NC(=O)[C@H](Cc2ccccc2)NC(=O)CSC[C@@H](C(=O)NCC(=O)NCC(=O)N[C@@H](CCCCN)C(N)=O)NC(=O)[C@@H]2CCCN2C(=O)[C@H](CCC(N)=O)NC(=O)[C@H](Cc2c[nH]c3ccccc23)NC1=O` [Compound 51a, *F.N.F.E.D.Q.S.P.D.T.W.Q.P.*C.G.G.K.NH2] ({CH2CO}-FNFEDQSPDTWQPCGGK-NH2; thioether N-14), for which the Kd was determined as 4.8 nM.
With `C[C@@H](O)[C@@H]1NC(=O)CNC(=O)C(C)(C)NC(=O)[C@H](CO)NC(=O)[C@H](CCC(N)=O)NC(=O)[C@H](CC(=O)O)NC(=O)[C@H](CCC(=O)O)NC(=O)[C@H](Cc2ccccc2)NC(=O)[C@H](CC(N)=O)NC(=O)[C@H](Cc2ccccc2)NC(=O)CSC[C@@H](C(=O)NCC(N)=O)NC(=O)[C@@H]2CCCN2C(=O)[C@H](CCC(N)=O)NC(=O)[C@H](Cc2c[nH]c3ccccc23)NC1=O` [Compound 45a, *F.N.F.E.D.Q.S.Aib.G.T.W.Q.P.*C.G.NH2] ({CH2CO}-FNFEDQS[Aib]GTWQPCG-NH2; thioether N-14), the Kd turned out to be 3.7 nM.
Same read-out and setting: the result for `C[C@@H](O)[C@@H]1NC(=O)[C@H](CC(=O)O)NC(=O)[C@@H]2CCCN2C(=O)[C@H](CO)NC(=O)[C@H](CCC(N)=O)NC(=O)[C@H](CC(=O)O)NC(=O)[C@H](CCC(=O)O)NC(=O)[C@H](Cc2ccccc2)NC(=O)[C@H](CC(N)=O)NC(=O)[C@H](Cc2ccccc2)NC(=O)CSC[C@@H](C(=O)NCC(N)=O)NC(=O)[C@@H]2C[C@H](F)CN2C(=O)[C@H](CCC(N)=O)NC(=O)[C@H](Cc2c[nH]c3ccccc23)NC1=O` [Compound 48a, *F.N.F.E.D.Q.S.P.D.T.W.Q.Proc4F.*C.G.NH2] ({CH2CO}-FNFEDQSPDTWQ[Pro(cis-4-F)]CG-NH2; thioether N-14) reads 4.2 nM.
